In article PMC9482650, “Quantitative fragmentomics allow affinity mapping of interactomes” (Nature Communications, 2022):

What was measured:
Assay in all cases: holdup assay
Design in all cases: key: below the threshold = too weak to quantify, mostly under pKd 3.1 to 4
ARHGAP21, Q5T5U3 = molecular target: T1, ARHGAP21, Q5T5U3
T1 sequence (Q5T5U3 45-169, limits assumed, looked up): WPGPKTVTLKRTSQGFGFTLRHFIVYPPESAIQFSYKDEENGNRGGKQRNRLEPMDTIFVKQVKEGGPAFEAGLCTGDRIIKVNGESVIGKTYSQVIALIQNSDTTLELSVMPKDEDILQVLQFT

DFNB31_2, Q9P202 = molecular target: T2, DFNB31_2, Q9P202
T2 sequence (Q9P202 274-371, limits assumed, looked up): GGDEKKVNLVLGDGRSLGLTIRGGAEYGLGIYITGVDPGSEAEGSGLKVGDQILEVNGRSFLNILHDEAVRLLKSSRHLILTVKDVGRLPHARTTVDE

DLG2_2, Q15700 = molecular target: DLG2_2, Q15700
DLG5_1, Q8TDM6 = molecular target: DLG5_1, Q8TDM6
FRMPD2_2, Q68DX3 = molecular target: FRMPD2_2, Q68DX3
GOPC, Q9HD26 = molecular target: GOPC, Q9HD26
GRASP, Q7Z6J2 = molecular target: GRASP, Q7Z6J2
GRIP1_2, Q9Y3R0 = molecular target: T3, GRIP1_2, Q9Y3R0
T3 sequence (Q9Y3R0 145-248, limits assumed, looked up): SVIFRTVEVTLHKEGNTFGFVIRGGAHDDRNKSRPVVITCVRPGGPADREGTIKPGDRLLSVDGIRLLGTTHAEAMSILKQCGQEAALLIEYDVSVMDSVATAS

GRIP2_3, Q9C0E4 = molecular target: GRIP2_3, Q9C0E4
HTRA2, O43464 = molecular target: HTRA2, O43464
HTRA4, P83105 = molecular target: T4, HTRA4, P83105
T4 sequence (P83105 378-476, limits assumed, looked up): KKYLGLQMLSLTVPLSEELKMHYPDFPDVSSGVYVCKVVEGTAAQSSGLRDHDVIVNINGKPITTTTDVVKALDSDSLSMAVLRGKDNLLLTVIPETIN

IL16_4, Q14005 = molecular target: IL16_4, Q14005
Inadl_3, Q8NI35 = molecular target: Inadl_3, Q8NI35
Inadl_4, Q8NI35 = molecular target: Inadl_4, Q8NI35
LAP2, Q96RT1 = molecular target: LAP2, Q96RT1
MAGI1_1, Q96QZ7 = molecular target: MAGI1_1, Q96QZ7
MAGI2_5, Q86UL8 = molecular target: MAGI2_5, Q86UL8
MAGI3_2, Q5TCQ9 = molecular target: MAGI3_2, Q5TCQ9
MPP2, Q14168 = molecular target: T5, MPP2, Q14168
T5 sequence (Q14168 180-250, limits assumed, looked up): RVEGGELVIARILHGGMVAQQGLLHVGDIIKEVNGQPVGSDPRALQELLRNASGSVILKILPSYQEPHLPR

NHERF2_2, Q15599 = molecular target: NHERF2_2, Q15599
PARD3B_1, Q8TEW8 = molecular target: T6, PARD3B_1, Q8TEW8
T6 sequence (Q8TEW8 196-299, limits assumed, looked up): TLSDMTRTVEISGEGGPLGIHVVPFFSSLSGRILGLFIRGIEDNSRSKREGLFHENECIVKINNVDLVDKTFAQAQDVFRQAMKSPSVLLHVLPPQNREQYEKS

PARD3_3, Q8TEW0 = molecular target: PARD3_3, Q8TEW0
PDZRN3_1, Q9UPQ7 = molecular target: T7, PDZRN3_1, Q9UPQ7
T7 sequence (Q9UPQ7 244-349, limits assumed, looked up): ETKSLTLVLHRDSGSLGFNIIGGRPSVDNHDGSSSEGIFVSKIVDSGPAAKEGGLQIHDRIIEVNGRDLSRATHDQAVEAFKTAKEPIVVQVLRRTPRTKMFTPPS

SHANK1, Q9Y566 = molecular target: T8, SHANK1, Q9Y566
T8 sequence (Q9Y566 658-767, limits assumed, looked up): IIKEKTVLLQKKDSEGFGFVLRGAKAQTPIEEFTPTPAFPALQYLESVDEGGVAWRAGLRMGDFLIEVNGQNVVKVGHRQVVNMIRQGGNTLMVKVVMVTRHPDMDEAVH

SNTB1, Q13884 = molecular target: T9, SNTB1, Q13884
T9 sequence (Q13884 107-205, limits assumed, looked up): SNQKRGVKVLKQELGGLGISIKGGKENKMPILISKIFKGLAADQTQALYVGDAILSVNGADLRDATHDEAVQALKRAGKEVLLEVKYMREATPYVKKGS

TX1BP3, O14907 = molecular target: T10, TX1BP3, O14907
T10 sequence (O14907 10-122, limits assumed, looked up): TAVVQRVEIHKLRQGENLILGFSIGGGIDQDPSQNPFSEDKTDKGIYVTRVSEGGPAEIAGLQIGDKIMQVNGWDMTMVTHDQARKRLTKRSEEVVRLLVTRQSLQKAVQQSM

[1] = plain residues with an end cap or a label only (N-terminal biotin on a linker: ado-ado)
[2] = plain residues with an end cap or a label only (N-terminal biotin on a linker: ahx)
[3] = plain residues with an end cap or a label only (N-terminal biotin on a linker: (peg)3)

Chain of IL16_4, Q14005 (Q14005 1229-1329): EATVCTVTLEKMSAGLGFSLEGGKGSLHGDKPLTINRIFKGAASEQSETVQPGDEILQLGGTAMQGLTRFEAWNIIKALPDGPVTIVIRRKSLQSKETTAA
Chain of Inadl_3, Q8NI35 (Q8NI35 359-469): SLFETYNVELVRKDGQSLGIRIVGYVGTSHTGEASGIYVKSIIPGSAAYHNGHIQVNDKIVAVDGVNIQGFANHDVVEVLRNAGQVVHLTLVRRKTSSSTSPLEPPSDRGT
Chain of GRIP2_3, Q9C0E4 (Q9C0E4 238-339): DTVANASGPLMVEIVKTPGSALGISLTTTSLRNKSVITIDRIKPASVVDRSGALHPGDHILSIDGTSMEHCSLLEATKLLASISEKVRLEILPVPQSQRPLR
Chain of FRMPD2_2, Q68DX3 (Q68DX3 944-1038): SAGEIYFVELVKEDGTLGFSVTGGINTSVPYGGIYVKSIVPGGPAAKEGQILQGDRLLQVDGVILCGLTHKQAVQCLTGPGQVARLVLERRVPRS
Chain of Inadl_4, Q8NI35 (Q8NI35 547-651): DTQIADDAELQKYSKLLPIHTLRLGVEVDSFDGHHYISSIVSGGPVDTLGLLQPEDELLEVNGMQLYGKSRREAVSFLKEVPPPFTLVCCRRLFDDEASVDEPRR
Chain of MAGI2_5, Q86UL8 (Q86UL8 915-1017): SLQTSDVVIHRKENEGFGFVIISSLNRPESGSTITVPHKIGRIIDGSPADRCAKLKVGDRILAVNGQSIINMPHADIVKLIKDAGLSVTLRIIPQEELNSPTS
Chain of LAP2, Q96RT1 (Q96RT1 other isoform, or with tags, fused parts or gaps): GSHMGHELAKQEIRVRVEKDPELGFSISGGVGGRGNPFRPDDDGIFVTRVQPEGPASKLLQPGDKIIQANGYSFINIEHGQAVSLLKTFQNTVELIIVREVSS
Chain of MAGI1_1, Q96QZ7 (Q96QZ7 1-106): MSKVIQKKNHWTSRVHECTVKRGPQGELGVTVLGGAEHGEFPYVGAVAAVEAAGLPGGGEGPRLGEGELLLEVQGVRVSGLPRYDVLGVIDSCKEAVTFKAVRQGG
Chain of GRASP, Q7Z6J2 (Q7Z6J2 96-193): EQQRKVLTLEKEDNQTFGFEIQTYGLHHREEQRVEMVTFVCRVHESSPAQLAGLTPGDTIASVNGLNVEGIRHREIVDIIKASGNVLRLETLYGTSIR
Chain of MAGI3_2, Q5TCQ9 (Q5TCQ9 398-503): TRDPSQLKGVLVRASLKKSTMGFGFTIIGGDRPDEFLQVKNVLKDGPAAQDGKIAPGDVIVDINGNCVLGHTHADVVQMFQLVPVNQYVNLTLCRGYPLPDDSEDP
Chain of NHERF2_2, Q15599 (Q15599 142-238): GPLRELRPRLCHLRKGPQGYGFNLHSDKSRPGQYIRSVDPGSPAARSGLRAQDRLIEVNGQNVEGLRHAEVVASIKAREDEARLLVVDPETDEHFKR
Chain of PARD3_3, Q8TEW0 (Q8TEW0 582-685): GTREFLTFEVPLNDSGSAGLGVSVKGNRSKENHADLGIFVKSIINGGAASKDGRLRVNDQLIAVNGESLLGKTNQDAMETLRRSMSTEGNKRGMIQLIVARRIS
Chain of HTRA2, O43464 (O43464 355-458): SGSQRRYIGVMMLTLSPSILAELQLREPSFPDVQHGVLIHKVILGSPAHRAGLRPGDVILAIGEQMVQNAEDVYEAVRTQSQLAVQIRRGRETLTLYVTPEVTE
Chain of DLG2_2, Q15700 (Q15700 189-283): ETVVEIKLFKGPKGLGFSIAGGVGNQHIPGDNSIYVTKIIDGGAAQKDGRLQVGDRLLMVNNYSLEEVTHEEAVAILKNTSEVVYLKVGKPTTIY
Chain of DLG5_1, Q8TDM6 (Q8TDM6 617-713): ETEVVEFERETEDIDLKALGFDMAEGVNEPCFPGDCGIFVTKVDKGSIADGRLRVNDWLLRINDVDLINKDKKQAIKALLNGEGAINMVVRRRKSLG

Binder: ARSAAASNYV [CLDN4, O14493]
- pKd (ARHGAP21, Q5T5U3; [1]): 3.9
- pKd (DFNB31_2, Q9P202; [1]): below the threshold
- pKd (DLG2_2, Q15700; [1]): below the threshold
- pKd (DLG5_1, Q8TDM6; [1]): below the threshold
- pKd (FRMPD2_2, Q68DX3; [1]): below the threshold
- pKd (GOPC, Q9HD26; [1]): below the threshold
- pKd (GRASP, Q7Z6J2; [1]): below the threshold
- pKd (GRIP1_2, Q9Y3R0; [1]): below the threshold
- pKd (GRIP2_3, Q9C0E4; [1]): below the threshold
- pKd (HTRA2, O43464; [1]): below the threshold
- pKd (HTRA4, P83105; [1]): 3.98
- pKd (IL16_4, Q14005; [1]): below the threshold
- pKd (Inadl_3, Q8NI35; [1]): below the threshold
- pKd (Inadl_4, Q8NI35; [1]): below the threshold
- pKd (LAP2, Q96RT1; [1]): below the threshold
- pKd (MAGI1_1, Q96QZ7; [1]): below the threshold
- pKd (MAGI2_5, Q86UL8; [1]): below the threshold
- pKd (MAGI3_2, Q5TCQ9; [1]): below the threshold
- pKd (MPP2, Q14168; [1]): below the threshold
- pKd (NHERF2_2, Q15599; [1]): below the threshold
- pKd (PARD3B_1, Q8TEW8; [1]): 3.65
- pKd (PARD3_3, Q8TEW0; [1]): 3.51
- pKd (PDZRN3_1, Q9UPQ7; [1]): below the threshold
- pKd (SHANK1, Q9Y566; [1]): below the threshold
- pKd (SNTB1, Q13884; [1]): below the threshold
- pKd (TX1BP3, O14907; [1]): below the threshold

Binder: QPRTWLQSPV [RTKN, Q9BST9]
- pKd (ARHGAP21, Q5T5U3; [2]): below the threshold
- pKd (DFNB31_2, Q9P202; [2]): below the threshold
- pKd (DLG2_2, Q15700; [2]): 4.71
- pKd (DLG5_1, Q8TDM6; [2]): below the threshold
- pKd (FRMPD2_2, Q68DX3; [2]): below the threshold
- pKd (GOPC, Q9HD26; [2]): 4.07
- pKd (GRASP, Q7Z6J2; [2]): 3.9
- pKd (GRIP1_2, Q9Y3R0; [2]): below the threshold
- pKd (GRIP2_3, Q9C0E4; [2]): below the threshold
- pKd (HTRA2, O43464; [2]): below the threshold
- pKd (HTRA4, P83105; [2]): below the threshold
- pKd (IL16_4, Q14005; [2]): below the threshold
- pKd (Inadl_3, Q8NI35; [2]): below the threshold
- pKd (Inadl_4, Q8NI35; [2]): below the threshold
- pKd (LAP2, Q96RT1; [2]): 4.42
- pKd (MAGI1_1, Q96QZ7; [2]): below the threshold
- pKd (MAGI2_5, Q86UL8; [2]): 4.33
- pKd (MAGI3_2, Q5TCQ9; [2]): 4.53
- pKd (MPP2, Q14168; [2]): below the threshold
- pKd (NHERF2_2, Q15599; [2]): below the threshold
- pKd (PARD3B_1, Q8TEW8; [2]): below the threshold
- pKd (PARD3_3, Q8TEW0; [2]): below the threshold
- pKd (PDZRN3_1, Q9UPQ7; [2]): below the threshold
- pKd (SHANK1, Q9Y566; [2]): 3.74
- pKd (SNTB1, Q13884; [2]): below the threshold
- pKd (TX1BP3, O14907; [2]): 6.05

Binder: RYEDTTLVEDTVL [WNV-NS5, Q9Q6P4]
- pKd (ARHGAP21, Q5T5U3; [3]): 5.01
- pKd (DFNB31_2, Q9P202; [3]): below the threshold
- pKd (DLG2_2, Q15700; [3]): below the threshold
- pKd (DLG5_1, Q8TDM6; [3]): below the threshold
- pKd (FRMPD2_2, Q68DX3; [3]): below the threshold
- pKd (GOPC, Q9HD26; [3]): 3.71
- pKd (GRASP, Q7Z6J2; [3]): 3.9
- pKd (GRIP1_2, Q9Y3R0; [3]): below the threshold
- pKd (GRIP2_3, Q9C0E4; [3]): below the threshold
- pKd (HTRA2, O43464; [3]): below the threshold
- pKd (HTRA4, P83105; [3]): below the threshold
- pKd (IL16_4, Q14005; [3]): 3.56
- pKd (Inadl_3, Q8NI35; [3]): 3.82
- pKd (Inadl_4, Q8NI35; [3]): below the threshold
- pKd (LAP2, Q96RT1; [3]): below the threshold
- pKd (MAGI1_1, Q96QZ7; [3]): 3.62
- pKd (MAGI2_5, Q86UL8; [3]): below the threshold
- pKd (MAGI3_2, Q5TCQ9; [3]): 3.5
- pKd (MPP2, Q14168; [3]): below the threshold
- pKd (NHERF2_2, Q15599; [3]): 4.89
- pKd (PARD3B_1, Q8TEW8; [3]): 4.66
- pKd (PARD3_3, Q8TEW0; [3]): 4.53
- pKd (PDZRN3_1, Q9UPQ7; [3]): 3.61
- pKd (SHANK1, Q9Y566; [3]): 4.77
- pKd (SNTB1, Q13884; [3]): 4.27
- pKd (TX1BP3, O14907; [3]): below the threshold
